Assays:
Assay in all cases: peptide array
Peptide_019 = biological target: T1, Peptide_019 (human)
T1 peptide: AQPHTEIPEGTTAEE
Summary of the method: (§1)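 Epitope mapping used slides carrying triplicate 15-residue peptides, offset by 5 aa, tiling full-length human Tau 2N4R. Chimeric IgG at 5 μg/mL or murine IgG at 30 μg/mL in 3% BSA-TBST (pH 7.5) bound for 2 h at RT; Alexa Fluor secondaries (568 or 647 nm channel) applied 1 h, then imaged.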

Peptide_063 = biological target: T2, Peptide_063 (human)
T2 peptide: KPVDLSKVTSKCGSL
Summary of the method: as §1

Peptide_032 = biological target: T3, Peptide_032 (human)
T3 peptide: GAAPPGQKGQANATR
Summary of the method: as §1

Peptide_034 = biological target: T4, Peptide_034 (human)
T4 peptide: ANATRIPAKTPPAPK
Summary of the method: as §1

Peptide_076 = biological target: T5, Peptide_076 (human)
T5 peptide: LTFRENAKAKTDHGA
Summary of the method: as §1

Peptide_085 = biological target: T6, Peptide_085 (human)
T6 peptide: DSPQLATLADEVSAS
Summary of the method: as §1

Peptide_068 = biological target: T7, Peptide_068 (human)
T7 peptide: QVEVKSEKLDFKDRV
Summary of the method: as §1

Peptide_017 = biological target: T8, Peptide_017 (human)
T8 peptide: DEGAPGKQAAAQPHT
Summary of the method: as §1

Peptide_009 = biological target: T9, Peptide_009 (human)
T9 peptide: AGLKESPLQTPTEDG
Summary of the method: as §1

Peptide_001 = biological target: T10, Peptide_001 (human)
T10 peptide: MAEPRQEFEVMEDHA
Summary of the method: as §1

Peptide_050 = biological target: T11, Peptide_050 (human)
T11 peptide: APVPMPDLKNVKSKI
Summary of the method: as §1

Peptide_026 = biological target: T12, Peptide_026 (human)
T12 peptide: RMVSKSKDGTGSDDK
Summary of the method: as §1

Peptide_077 = biological target: T13, Peptide_077 (human)
T13 peptide: NAKAKTDHGAEIVYK
Summary of the method: as §1

Peptide_035 = biological target: T14, Peptide_035 (human)
T14 peptide: IPAKTPPAPKTPPSS
Summary of the method: as §1

Peptide_042 = biological target: T15, Peptide_042 (human)
T15 peptide: PGSRSRTPSLPTPPT
Summary of the method: as §1

Peptide_004 = biological target: T16, Peptide_004 (human)
T16 peptide: GTYGLGDRKDQGGYT
Summary of the method: as §1

Peptide_045 = biological target: T17, Peptide_045 (human)
T17 peptide: REPKKVAVVRTPPKS
Summary of the method: as §1

Peptide_074 = biological target: T18, Peptide_074 (human)
T18 peptide: GGNKKIETHKLTFRE
Summary of the method: as §1

Peptide_039 = biological target: T19, Peptide_039 (human)
T19 peptide: SGDRSGYSSPGSPGT
Summary of the method: as §1

Peptide_012 = biological target: T20, Peptide_012 (human)
T20 peptide: SEEPGSETSDAKSTP
Summary of the method: as §1

Peptide_028 = biological target: T21, Peptide_028 (human)
T21 peptide: GSDDKKAKGADGKTK
Summary of the method: as §1

Peptide_051 = biological target: T22, Peptide_051 (human)
T22 peptide: PDLKNVKSKIGSTEN
Summary of the method: as §1

Peptide_082 = biological target: T23, Peptide_082 (human)
T23 peptide: RHLSNVSSTGSIDMV
Summary of the method: as §1

Peptide_084 = biological target: T24, Peptide_084 (human)
T24 peptide: SIDMVDSPQLATLAD
Summary of the method: as §1

Peptide_044 = biological target: T25, Peptide_044 (human)
T25 peptide: PTPPTREPKKVAVVR
Summary of the method: as §1

Peptide_079 = biological target: T26, Peptide_079 (human)
T26 peptide: EIVYKSPVVSGDTSP
Summary of the method: as §1

Peptide_064 = biological target: T27, Peptide_064 (human)
T27 peptide: SKVTSKCGSLGNIHH
Summary of the method: as §1

Peptide_007 = biological target: T28, Peptide_007 (human)
T28 peptide: MHQDQEGDTDAGLKE
Summary of the method: as §1

Peptide_011 = biological target: T29, Peptide_011 (human)
T29 peptide: PTEDGSEEPGSETSD
Summary of the method: as §1

Peptide_013 = biological target: T30, Peptide_013 (human)
T30 peptide: SETSDAKSTPTAEDV
Summary of the method: as §1

Peptide_029 = biological target: T31, Peptide_029 (human)
T31 peptide: KAKGADGKTKIATPR
Summary of the method: as §1

Peptide_059 = biological target: T32, Peptide_059 (human)
T32 peptide: CGSKDNIKHVPGGGS
Summary of the method: as §1

Peptide_081 = biological target: T33, Peptide_081 (human)
T33 peptide: GDTSPRHLSNVSSTG
Summary of the method: as §1

Peptide_071 = biological target: T34, Peptide_071 (human)
T34 peptide: QSKIGSLDNITHVPG
Summary of the method: as §1

Peptide_015 = biological target: T35, Peptide_015 (human)
T35 peptide: TAEDVTAPLVDEGAP
Summary of the method: as §1

Measured: binding result

B1: murine anti-Tau hybridoma antibody 17G2.A1 (antibody, V domains shown)
VH: QVQLQQPGAELVGPGSSVKLSCKASGYTFINYWIDWMKQSPGQGLEWIGNIYPSDSESHYNQKFTDKATLTVDISSSTAYLQLSSLTSEDSAVYYCALYSKGYWGQGTSVTVSS
VL: DVLMTQTPLSLPVTLGDQASISCRSSQNIVHTNGNTYLEWYLQKPGQSPKLLIYKLSSRFSGVPDRFSGSGSGTDFTLKISRVEAEDLGVYYCFQGSHLPFTFGGGTKLEIKR
notes: mouse IgG from hybridoma; also called anti-Tau 17G2.A1
no binding (tested: 30 ug/mL): Peptide_019 | Peptide_063 | Peptide_032 | Peptide_034 | Peptide_076 | Peptide_085 | Peptide_068 | Peptide_017 | Peptide_009 | Peptide_001 | Peptide_050 | Peptide_026 | Peptide_077 | Peptide_035 | Peptide_042 | Peptide_004 | Peptide_045 | Peptide_074 | Peptide_012 | Peptide_028 | Peptide_051 | Peptide_082 | Peptide_084 | Peptide_044 | Peptide_079 | Peptide_064 | Peptide_007 | Peptide_011 | Peptide_013 | Peptide_029 | Peptide_059 | Peptide_081 | Peptide_071 | Peptide_015
binds: Peptide_039

Reference: patent publication US20200216522A1 (DENALI THERAPEUTICS, published 2020)
